Assay results taken from paper PMC3105044, “The Membrane Bound LRR Lipoprotein Slr, and the Cell Wall-Anchored M1 Protein from Streptococcus pyogenes Both Interact with Type I Collagen” (PLoS ONE, 2011).

Experiments:
Collagen type I [1] = molecular target: Collagen type I (UniProt P02452); assay: SPR; collagen I immobilised by amine coupling on a CM3 chip (about 1500 RU); Slr or M1 diluted 2-fold from 500 nM, 35 µl/min, in 10 mM HEPES, 150 mM NaCl, 0.005% Surfactant P20, pH 7.5; BIAcore 2000; 1:1 Langmuir fit
Collagen type I [2] = molecular target: T1, Collagen type I (UniProt P02452 162-1218; P08123 80-1119); assay: as above; settings: both partners purified
T1 construct: collagen I alpha1 chain (printed as the α1 chain, 134 kDa); collagen I alpha2 chain (printed as the α2 chain, 130 kDa); Used non-denatured, denatured with 4 M guanidine hydrochloride, monomeric and fibrillar; also called collagen I; monomeric collagen I; source: bought: Sigma
T1 sequence (P02452 162-1218, chain 1 of 2): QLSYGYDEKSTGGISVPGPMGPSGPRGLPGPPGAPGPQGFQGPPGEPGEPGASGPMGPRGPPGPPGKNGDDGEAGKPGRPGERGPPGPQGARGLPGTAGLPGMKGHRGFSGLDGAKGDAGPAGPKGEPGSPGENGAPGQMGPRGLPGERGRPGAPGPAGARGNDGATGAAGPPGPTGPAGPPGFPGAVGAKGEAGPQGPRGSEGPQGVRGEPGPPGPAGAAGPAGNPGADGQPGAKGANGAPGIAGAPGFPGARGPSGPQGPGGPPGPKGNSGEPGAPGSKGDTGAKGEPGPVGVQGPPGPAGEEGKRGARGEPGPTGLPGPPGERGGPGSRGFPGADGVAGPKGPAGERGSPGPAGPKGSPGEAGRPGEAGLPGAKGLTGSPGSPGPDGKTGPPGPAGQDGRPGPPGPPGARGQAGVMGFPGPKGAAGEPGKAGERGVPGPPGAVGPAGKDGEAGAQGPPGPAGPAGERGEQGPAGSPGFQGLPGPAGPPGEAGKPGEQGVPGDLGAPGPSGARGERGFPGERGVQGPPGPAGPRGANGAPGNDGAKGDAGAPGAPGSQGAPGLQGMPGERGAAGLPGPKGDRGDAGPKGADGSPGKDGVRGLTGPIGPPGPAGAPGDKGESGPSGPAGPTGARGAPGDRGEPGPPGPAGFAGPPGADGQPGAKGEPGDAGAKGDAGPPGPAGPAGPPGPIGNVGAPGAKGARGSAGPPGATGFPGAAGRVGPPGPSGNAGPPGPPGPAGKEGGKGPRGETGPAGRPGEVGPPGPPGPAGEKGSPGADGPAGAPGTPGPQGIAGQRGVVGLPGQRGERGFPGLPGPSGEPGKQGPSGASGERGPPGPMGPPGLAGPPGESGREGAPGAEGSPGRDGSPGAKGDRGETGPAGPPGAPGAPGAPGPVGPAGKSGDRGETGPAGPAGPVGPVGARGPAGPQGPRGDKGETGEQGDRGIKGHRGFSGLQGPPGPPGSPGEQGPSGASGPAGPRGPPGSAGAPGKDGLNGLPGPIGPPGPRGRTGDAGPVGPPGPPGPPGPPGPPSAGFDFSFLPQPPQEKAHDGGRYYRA
T1 sequence (P08123 80-1119, chain 2 of 2): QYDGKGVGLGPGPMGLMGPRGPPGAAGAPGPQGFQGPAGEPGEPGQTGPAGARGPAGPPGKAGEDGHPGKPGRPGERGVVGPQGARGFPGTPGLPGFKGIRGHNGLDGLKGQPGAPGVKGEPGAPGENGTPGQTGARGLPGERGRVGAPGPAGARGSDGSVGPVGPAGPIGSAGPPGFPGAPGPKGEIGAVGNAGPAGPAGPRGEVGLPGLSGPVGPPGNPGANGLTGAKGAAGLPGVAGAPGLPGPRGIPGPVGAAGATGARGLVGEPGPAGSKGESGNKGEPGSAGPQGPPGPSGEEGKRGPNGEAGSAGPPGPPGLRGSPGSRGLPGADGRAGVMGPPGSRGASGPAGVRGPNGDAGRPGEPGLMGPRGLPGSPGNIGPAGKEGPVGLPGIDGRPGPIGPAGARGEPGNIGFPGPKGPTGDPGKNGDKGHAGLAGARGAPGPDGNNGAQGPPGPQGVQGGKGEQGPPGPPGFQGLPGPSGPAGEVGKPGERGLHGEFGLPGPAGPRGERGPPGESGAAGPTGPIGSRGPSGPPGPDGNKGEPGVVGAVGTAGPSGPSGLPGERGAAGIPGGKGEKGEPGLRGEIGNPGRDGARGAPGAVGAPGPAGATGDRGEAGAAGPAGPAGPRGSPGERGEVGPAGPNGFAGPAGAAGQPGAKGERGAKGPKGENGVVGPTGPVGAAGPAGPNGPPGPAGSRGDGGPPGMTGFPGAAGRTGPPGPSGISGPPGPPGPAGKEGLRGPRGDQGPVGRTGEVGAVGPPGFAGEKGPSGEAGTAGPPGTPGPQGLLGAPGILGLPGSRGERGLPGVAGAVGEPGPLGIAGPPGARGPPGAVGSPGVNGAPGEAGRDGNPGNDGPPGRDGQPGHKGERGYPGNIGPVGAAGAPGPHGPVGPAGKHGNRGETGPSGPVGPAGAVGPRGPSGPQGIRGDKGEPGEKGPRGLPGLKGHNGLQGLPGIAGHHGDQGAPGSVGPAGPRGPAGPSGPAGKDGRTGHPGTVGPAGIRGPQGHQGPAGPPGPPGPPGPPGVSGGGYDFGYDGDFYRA

Chain of Collagen type I (UniProt P02452) (P02452 162-1218, chain 1 of 2): as the sequence (P02452 162-1218, chain 1 of 2) above
Chain of Collagen type I (UniProt P02452) (P08123 80-1119, chain 2 of 2, further chain): as the sequence (P08123 80-1119, chain 2 of 2) above

Molecule	Kd (Collagen type I [1])	Kd (Collagen type I [2])
streptococcal leucine rich (Slr) protein, recombinant, GST tag removed (from UniProt F8THZ1 1-792) (natural protein)	12 nM	
M1 protein from Streptococcus pyogenes, purified from culture supernatants of strain MC25 (natural protein) NGDGNPREVIEDLAANNPAIQNIRLRYENKDLKARLENAMEVAGRDFKRAEELEKAKQALEDQRKDLETKLKELQQDYDLAKESTSWDRQRLEKELEEKKEALELAIDQASRDYHRATALEKELEEKKKALELAIDQASQDYNRANVLEKELETITREQEINRNLLGNAKLELDQLSSEKEQLTIEKAKLEEEKQISDASRQSLRRDLDASREAKKQVEKDLANLTAELDKVKEDKQISDASRQGLRRDLDASREAKKQVEKDLANLTAELDKVKEEKQISDASRQGLRRDLDASREAKKQVEKALEEANSKLAALEKLNKELEESKKLTEKEKAELQAKLEAEAKALKEQLAKQAEELAKLRAGKASDSQTPDTKPGNKAVPGKGQAPQAGTKPNQNKAPMKETKRQLPST		54 nM
